Measured values from the Human Domainome abundance scans (Beltran et al. 2025).
± gives the uncertainty stated by the source.

B1: Chromodomain-helicase-DNA-binding protein 3, residues 374 to 426; numbered along this chain, Q12873 (parent)
chain: YETDHQDYCEVCQQGGEIILCDTCPRAYHLVCLDPELDRAPEGKWSCPHCEKE

Variants of: B1
Experiment: abundance fitness (aPCA) (normalised: wild type 0, dead -1); higher = more abundant; growth selection in yeast, the domain comes from the species named
Conditions: Homo sapiens

Variant | abundance fitness
T3E | 0.314 ± 0.14
T3V | -0.055 ± 0.093
C9V | -0.633 ± 0.14
C9D | -0.743 ± 0.19
C9K | -0.425 ± 0.19
C9W | -0.716 ± 0.13
C9F | -0.975 ± 0.17
C9R | -0.62 ± 0.1
C9Q | -0.551 ± 0.15
C9N | -0.353 ± 0.15
C9P | -0.756 ± 0.14
C9A | -0.96 ± 0.18
C9H | -0.786 ± 0.17
C9G | -0.669 ± 0.14
C9L | -0.681 ± 0.1
C9Y | -0.74 ± 0.11
C9E | -0.548 ± 0.21
Q6F | -0.579 ± 0.18
Q6G | -0.299 ± 0.21
Q6P | -0.353 ± 0.16
Q6H | -0.014 ± 0.15
Q6A | -0.209 ± 0.27

Variant | abundance fitness
Q6S | -0.439 ± 0.12
Q6E | -0.227 ± 0.22
Q6Y | -0.267 ± 0.14
Q6W | -0.378 ± 0.17
Q6C | -0.499 ± 0.17
Q6R | -0.139 ± 0.14
Q6D | -0.294 ± 0.28
Y1N | -0.287 ± 0.25
Y1I | 0.557 ± 0.34
Y1C | 0.258 ± 0.21
Y1K | 0.352 ± 0.46
Y1V | 0.156 ± 0.2
Y1S | -0.264 ± 0.34
Y1D | -0.2 ± 0.19
Y1E | 0.154 ± 0.33
Y1G | 0.416 ± 0.21
Y1W | 0.259 ± 0.21
Y1L | 0.172 ± 0.27
E10S | 0.064 ± 0.097
E10F | -0.08 ± 0.14
E10L | 0.259 ± 0.097
E10T | 0.132 ± 0.12

Variant | abundance fitness
E10H | 0.114 ± 0.16
E10V | 0.137 ± 0.1
E10N | 0.268 ± 0.14
E10K | 0.169 ± 0.13
E10Y | 0.158 ± 0.12
E10A | -0.083 ± 0.11
E10P | -0.006 ± 0.14
E10G | -0.139 ± 0.089
E10Q | 0.116 ± 0.18
E10R | 0.027 ± 0.086
E10D | 0.169 ± 0.13
E10C | 0.046 ± 0.12
E10M | -0.301 ± 0.13
H5W | -0.197 ± 0.12
H5T | 0.186 ± 0.11
H5A | 0.329 ± 0.1
H5S | 0.302 ± 0.1
H5E | -0.137 ± 0.14
H5F | -0.171 ± 0.29
H5R | 0.118 ± 0.093
H5G | 0.366 ± 0.11
H5Q | 0.13 ± 0.11

Variant | abundance fitness
H5V | 0.142 ± 0.092
H5D | -1.03 ± 0.24
H5C | 0.222 ± 0.24
H5L | 0.161 ± 0.087
H5N | 0.229 ± 0.14
H5P | -0.071 ± 0.12
V11A | -0.143 ± 0.079
V11C | 0.184 ± 0.089
V11T | 0.269 ± 0.078
V11P | 0.029 ± 0.087
V11E | 0.277 ± 0.08
V11F | 0.138 ± 0.095
V11N | 0.182 ± 0.094
V11S | 0.284 ± 0.068
V11Y | 0.085 ± 0.1
V11L | 0.145 ± 0.073
V11M | 0.279 ± 0.083
V11Q | -0.217 ± 0.098
V11H | 0.362 ± 0.11
V11K | 0.258 ± 0.087
V11W | -0.266 ± 0.089
V11R | 0.12 ± 0.072

Variant | abundance fitness
V11D | 0.178 ± 0.089
E2G | -0.011 ± 0.13
E2P | -0.095 ± 0.11
E2Q | 0.231 ± 0.17
E2I | 0.419 ± 0.1
E2M | 0.549 ± 0.18
E2S | 0.125 ± 0.098
E2L | 0.282 ± 0.09
E2F | 0.285 ± 0.13
E2R | -0.086 ± 0.12
E2C | 0.138 ± 0.15
E2Y | 0.327 ± 0.12
E2N | 0.526 ± 0.11
E2H | 0.126 ± 0.099
E2D | 0.327 ± 0.12
E2W | -0.006 ± 0.27
E2A | -0.263 ± 0.1
E2T | 0.34 ± 0.097
E2V | -0.232 ± 0.089
E2K | 0.294 ± 0.15
C12A | -0.712 ± 0.15
C12D | -0.7 ± 0.34
